Several values for one entry are separate records, joined by “and”; a condition that tells them apart may be missing. Identical values can stand only once.
B1: Ire1 luminal domain region II–IV (residues 32–390) (domain or fragment, human, UniProt O75460 32-390, looked up)
chain: LLFVSTLDGSLHAVSKRTGSIKWTLKEDPVLQVPTHVEEPAFLPDPNDGSLYTLGSKNNEGLTKLPFTIPELVQASPCRSSDGILYMGKKQDIWYVIDLLTGEKQQTLSSAFADSLCPSTSLLYLGRTEYTITMYDTKTRELRWNATYFDYAASLPEDDVDYKMSHFVSNGDGLVVTVDSESGDVLWIQNYASPVVAFYVWQREGLRKVMHINVAVETLRYLTFMSGEVGRITKWKYPFPKETEAKSKLTPTLYVGKYSTSLYASPSMVHEGVAVVPRGSTLPLLEGPQTDGVTIGDKGECVITPSTDVKFDPGLKSKNKLNYLRNYWLLIGHHETPLSASTKMLERFPNNLPKHRENV
notes: Ire1, human, luminal domain regions II-IV, residues 32-390; With cross linker it forms dimer and tetramer species; also called Ire1 II–IV; Ire1 LD for cross-link experiment; source: E. coli BL21 (DE3), purified (Co2+-NTA, anion exchange, SEC); not shown: His6, N-terminal, cleaved
B2: Perk luminal domain region I–IV (residues 54–403) (domain or fragment, human, UniProt Q9NZJ5 54-403, looked up)
chain: TSATRVPAAGAVAAAEVTVEDAEALPAAAGEQEPRGPEPDDETELRPRGRSLVIISTLDGRIAALDPENHGKKQWDLDVGSGSLVSSSLSKPEVFGNKMIIPSLDGALFQWDQDRESMETVPFTVESLLESSYKFGDDVVLVGGKSLTTYGLSAYSGKVRYICSALGCRQWDSDEMEQEEDILLLQRTQKTVRAVGPRSGNEKWNFSVGHFELRYIPDMETRAGFIESTFKPNENTEESKIISDVEEQEAAIMDIVIKVSVADWKVMAFSKKGGHLEWEYQFCTPIASAWLLKDGKVIPISLFDDTSYTSNDDVLEDEEDIVEAARGATENSVYLGMYRGQLYLQSSVRI
notes: Perk, human, luminal domain regions I-IV, residues 54-403; also called Perk I–IV; source: E. coli BL21 (DE3), purified (Co2+-NTA, anion exchange, SEC); not shown: His6, N-terminal, cleaved
B3: unfolded protein CH1 (immunoglobulin constant heavy chain domain) (domain or fragment)
chain: not shown
notes: immunoglobulin constant heavy chain domain CH1, intrinsically unfolded without CL; also called CH1 substrate; source: expressed as previously described (Marcinowski et al., 2011)
B4: His6-tagged BiP ATPase domain (residues 28–405) (domain or fragment)
chain: not shown
notes: BiP, human, ATPase domain, residues 28-405; also called His6-tagged BiP ATPase domain protein; source: E. coli BL21 (DE3), purified (Co2+-NTA, anion exchange, SEC); not shown: His6, N-terminal, kept
B5: Ire1 luminal domain region I–IV (residues 24–390) (domain or fragment, human, UniProt O75460 24-390, looked up)
chain: STVTLPETLLFVSTLDGSLHAVSKRTGSIKWTLKEDPVLQVPTHVEEPAFLPDPNDGSLYTLGSKNNEGLTKLPFTIPELVQASPCRSSDGILYMGKKQDIWYVIDLLTGEKQQTLSSAFADSLCPSTSLLYLGRTEYTITMYDTKTRELRWNATYFDYAASLPEDDVDYKMSHFVSNGDGLVVTVDSESGDVLWIQNYASPVVAFYVWQREGLRKVMHINVAVETLRYLTFMSGEVGRITKWKYPFPKETEAKSKLTPTLYVGKYSTSLYASPSMVHEGVAVVPRGSTLPLLEGPQTDGVTIGDKGECVITPSTDVKFDPGLKSKNKLNYLRNYWLLIGHHETPLSASTKMLERFPNNLPKHRENV
notes: Ire1, human, luminal domain regions I-IV, residues 24-390; also called Ire1 I–IV; source: E. coli BL21 (DE3), purified (Co2+-NTA, anion exchange, SEC); not shown: His6, N-terminal, cleaved
B6: Ire1 luminal domain, complete (region I–V, residues 24–440) (domain or fragment, human, UniProt O75460 24-440, looked up)
chain: STVTLPETLLFVSTLDGSLHAVSKRTGSIKWTLKEDPVLQVPTHVEEPAFLPDPNDGSLYTLGSKNNEGLTKLPFTIPELVQASPCRSSDGILYMGKKQDIWYVIDLLTGEKQQTLSSAFADSLCPSTSLLYLGRTEYTITMYDTKTRELRWNATYFDYAASLPEDDVDYKMSHFVSNGDGLVVTVDSESGDVLWIQNYASPVVAFYVWQREGLRKVMHINVAVETLRYLTFMSGEVGRITKWKYPFPKETEAKSKLTPTLYVGKYSTSLYASPSMVHEGVAVVPRGSTLPLLEGPQTDGVTIGDKGECVITPSTDVKFDPGLKSKNKLNYLRNYWLLIGHHETPLSASTKMLERFPNNLPKHRENVIPADSEKKSFEEVINLVDQTSENAPTTVSRDVEEKPAHAPARPEAPVDSM
notes: Ire1, human, luminal domain regions I-V, residues 24-440; also called Ire1 I–V; Ire1 LD; source: E. coli BL21 (DE3), purified (Co2+-NTA, anion exchange, SEC); not shown: His6, N-terminal, cleaved
B7: BiP ATPase domain (residues 28–405), His6-tag removed (domain or fragment)
chain: not shown
notes: BiP, human, ATPase domain, residues 28-405; also called BiP's ATPase domain; source: E. coli BL21 (DE3), purified (Co2+-NTA, anion exchange, SEC); not shown: His6, N-terminal, cleaved
B8: Perk luminal domain, complete (region I–V, residues 54–509) (domain or fragment, human, UniProt Q9NZJ5 54-509, looked up)
chain: TSATRVPAAGAVAAAEVTVEDAEALPAAAGEQEPRGPEPDDETELRPRGRSLVIISTLDGRIAALDPENHGKKQWDLDVGSGSLVSSSLSKPEVFGNKMIIPSLDGALFQWDQDRESMETVPFTVESLLESSYKFGDDVVLVGGKSLTTYGLSAYSGKVRYICSALGCRQWDSDEMEQEEDILLLQRTQKTVRAVGPRSGNEKWNFSVGHFELRYIPDMETRAGFIESTFKPNENTEESKIISDVEEQEAAIMDIVIKVSVADWKVMAFSKKGGHLEWEYQFCTPIASAWLLKDGKVIPISLFDDTSYTSNDDVLEDEEDIVEAARGATENSVYLGMYRGQLYLQSSVRISEKFPSSPKALESVTNENAIIPLPTIKWKPLIHSPSRTPVLVGSDEFDKCLSNDKFSHEEYSNGALSILQYPYDNGYYLPYYKRERNKRSTQITVRFLDNPHYNKN
notes: Perk, human, luminal domain regions I-V, residues 54-509; see recheck on the SEC MALS mass; also called Perk I–V; Perk LD; source: E. coli BL21 (DE3), purified (Co2+-NTA, anion exchange, SEC); not shown: His6, N-terminal, cleaved

Assays:
[1] = target: the molecule itself; assay: cross-linking; EGS, 50-fold molar excess, 1 hr; proteins at 50 μM in 50 mM Hepes pH 8.0, 50 mM NaCl, 5% glycerol, 5 mM DTT; alone or in 1:1 molar mixture; SDS-PAGE and anti-His6 blot
[2] = target: B7; assay: MST; Monolith NT.115; buffer B (50 mM HEPES pH 7.5, 75 mM NaCl, 10% glycerol, 1 mM TCEP), no nucleotide; one partner labelled (Red-NHS) at 50 nM, sixteen twofold dilutions of the unlabelled partner (which was labelled is not told); 25°C; three independent experiments averaged; settings: both partners purified
[3] = target: T1, full-length BiP (BiP FL, residues 28–654), His6-tag removed (human, UniProt P11021 28-654); assay: as above; settings: both partners purified
T1 construct: BiP (ER Hsp70 chaperone), human, residues 28-654; In MST one partner carried the Red-NHS label; also called ER Hsp70 chaperone; source: E. coli BL21 (DE3), purified (Co2+-NTA, anion exchange, SEC); not shown: His6, N-terminal, cleaved
T1 sequence (P11021 28-654): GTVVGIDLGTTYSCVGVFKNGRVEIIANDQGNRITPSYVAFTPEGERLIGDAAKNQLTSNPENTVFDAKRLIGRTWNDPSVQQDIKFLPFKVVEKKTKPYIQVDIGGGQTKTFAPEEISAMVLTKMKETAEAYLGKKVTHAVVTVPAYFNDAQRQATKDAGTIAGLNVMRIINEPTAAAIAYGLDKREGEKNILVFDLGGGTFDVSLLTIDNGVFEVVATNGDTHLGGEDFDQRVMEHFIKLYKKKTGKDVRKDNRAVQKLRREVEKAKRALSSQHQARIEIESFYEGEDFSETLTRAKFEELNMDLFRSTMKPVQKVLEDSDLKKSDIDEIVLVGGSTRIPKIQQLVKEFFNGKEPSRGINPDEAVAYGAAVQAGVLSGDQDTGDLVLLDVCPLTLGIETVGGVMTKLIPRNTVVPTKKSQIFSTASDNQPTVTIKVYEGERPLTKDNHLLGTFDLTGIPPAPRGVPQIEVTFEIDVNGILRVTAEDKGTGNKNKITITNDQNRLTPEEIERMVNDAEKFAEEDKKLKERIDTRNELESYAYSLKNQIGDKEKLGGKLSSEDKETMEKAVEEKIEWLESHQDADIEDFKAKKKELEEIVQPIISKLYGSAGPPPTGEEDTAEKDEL

[4] = target: T2, BiP substrate binding domain (residues 422–654), His6-tag removed (human, UniProt P11021 422-654); assay: as above; settings: both partners purified
T2 construct: also called BiP SBD; source: E. coli BL21 (DE3), purified (Co2+-NTA, anion exchange, SEC); not shown: His6, N-terminal, cleaved
T2 sequence (P11021 422-654): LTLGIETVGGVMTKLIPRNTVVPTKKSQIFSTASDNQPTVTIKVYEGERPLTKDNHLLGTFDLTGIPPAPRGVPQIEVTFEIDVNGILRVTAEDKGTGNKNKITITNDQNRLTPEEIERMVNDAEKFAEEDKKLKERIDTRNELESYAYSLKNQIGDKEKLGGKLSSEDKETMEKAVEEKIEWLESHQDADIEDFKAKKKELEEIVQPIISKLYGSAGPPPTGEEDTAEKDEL

[5] = target: B1; assay: cross-linking; EGS, 50-fold molar excess, 1 hr; proteins at 50 μM in 50 mM Hepes pH 8.0, 50 mM NaCl, 5% glycerol, 5 mM DTT; alone or in 1:1 molar mixture; SDS-PAGE and anti-His6 blot; settings: both partners purified
[6] = target: T3, ΔEspP, yeast Ire1-specific unfolded peptide mimic; assay: ITC; settings: both partners purified
T3 construct: also called unfolded protein peptide mimic; source: bought: AltaBiosciences

SEC-MALS = target: the molecule itself; assay: SEC-MALS
[7] = target: B8; assay: MST; Monolith NT.115; buffer B (50 mM HEPES pH 7.5, 75 mM NaCl, 10% glycerol, 1 mM TCEP), no nucleotide; one partner labelled (Red-NHS) at 50 nM, sixteen twofold dilutions of the unlabelled partner (which was labelled is not told); 25°C; three independent experiments averaged; settings: both partners purified
[8] = target: B6; assay: as above; settings: both partners purified

Question: Which “stoichiometry N” value [1] does the source give for B1 here?
Answer: 2 and 4

Question: Does B1 bind [2]?
Answer: binds

Question: Does B2 bind [2]?
Answer: binds

Question: What does the source list for B3?
Answer: Kd [3]: 8.7 µM; Kd [4]: 5.1 µM

Question: How did the “stoichiometry N” value [5] turn out when B4 was run?
Answer: 1 1:1 and 2 2:1 (which of the two stands twice is not said)

Question: Does B5 bind [2]?
Answer: binds

Question: With B6 as the binder, how does the Kd [6] read?
Answer: 6.4 µM

Question: And the “stoichiometry N” value (SEC-MALS)?
Answer: 2

Question: What about the Kd [3] of the same binder?
Answer: 1.33 µM

Question: What does the source list for B7?
Answer: Kd [7]: 2.05 µM; Kd [8]: 1.97 µM

Question: What does the source list for B8?
Answer: Kd [6]: 9.3 µM; stoichiometry N (SEC-MALS): 2; Kd [3]: 1.92 µM

Reference: PMC4337721, “Noncanonical binding of BiP ATPase domain to Ire1 and Perk is dissociated by unfolded protein CH1 to initiate ER stress signaling” (eLife, 2015)
